The experiment has as its target immunoglobulin G (IgG) obtained from human serum (human). The experiment is described as follows: human serum IgG (2 mg/mL) bound to Protein A on latex beads, washed, read by SDS-PAGE.

“Protein A polymer (UniStac linear multimeric polymer of Protein A) immobilized on latex beads” yielded an increase of binding activity compared to beads with the Protein A monomer greater than 15%.

Source of the values: patent US20250250321A1.
